The values below come from PMC5072170.

One may read the Km as the substrate concentration at which the rate is half of its maximum. In general, kcat refers to the number of substrate molecules converted per active site and unit of time at saturation. The kcat/Km is the second-order rate constant that governs catalysis at low substrate concentration.

The subject of this data set is Cc1cn([C@H]2C[C@H](O)[C@@H](COP(=O)(O)OP(=O)(O)O[C@H]3O[C@H](C)[C@@H](O)[C@H](N)[C@H]3O)O2)c(=O)[nH]c1=O. The data set can be described thus: purified protein. The settings on record: 5 mM N10-formyl-THF, 50 mM HEPPS pH 8.0, hyperbolic.

QdtF (Providencia alcalifaciens): the Michaelis constant (Km) turned out to be 450 ± 90 µM, the catalytic constant (kcat) turned out to be 2.43 ± 0.31 s⁻¹ and the kcat/Km amounted to 5400 M⁻¹ s⁻¹.
